Experimental data as given in article PMC7079103.

How the values were obtained:
Assay in all cases: HRP-coupled steady-state kinetics
Format in all cases: biochemical, Phanerodontia chrysosporium
Details in all cases: apparent, 50 mM potassium phosphate pH 7.5, O2 as co-substrate
[1] = substrate: CC(O)CCCO
[2] = substrate: CCCCCC=O
[3] = substrate: OCCOCCO
[4] = substrate: OCCCCCCO
[5] = substrate: OCCCCCO
[6] = substrate: CCCCCCO
[7] = substrate: CC1CCC(O)O1

B1: alcohol oxidase from Phanerochaete chrysosporium (PcAOX; F101S-PcAOX = AOX*) (Phanerodontia chrysosporium; F101S) (protein)
chain: MGHPEEVDVIVCGGGPAGCVVAGRLAYADPTLKVMLIEGGANNRDDPWVYRPGIYVRNMQRNGINDKATFYTDTMASSYLRGRRSIVPCANILGGGSSINSQMYTRASASDWDDFKTEGWTCKDLLPLMKRLENYQKPCNNDTHGYDGPIAISNGGQIMPVAQDFLRAAHAIGVPYSDDIQDLTTAHGAEIWAKYINRHTGRRSDAATAYVHSVMDVQDNLFLRCNARVSRVLFDDNNKAVGVAYVPSRNRTHGGKLHETIVKARKMVVLSSGTLGTPQILERSGVGNGELLRQLGIKIVSDLPGVGEQYQDHYTTLSIYRVSNESITTDDFLRGVKDVQRELFTEWEVSPEKARLSSNAIDAGFKIRPTEEELKEMGPEFNELWNRYFKDKPDKPVMFGSIVAGAYADHTLLPPGKYITMFQYLEYPASRGKIHIKSQNPYVEPFFDSGFMNNKADFAPIRWSYKKTREVARRMDAFRGELTSHHPRFHPASPAACKDIDIETAKQIYPDGLTVGIHMGSWHQPSEPYKHDKVIEDIPYTEEDDKAIDDWVADHVETTWHSLGTCAMKPREQGGVVDKRLNVYGTQNLKCVDLSICPDNLGTNTYSSALLVGEKGADLIAEELGLKIKTPHAPVPHAPVPTGRPATQQVR
[1]
  Km: 52.6 mM
  kcat: 1.28 s⁻¹
  kcat/Km: 24.3 M ^-1 s^-1
[2]
  Km: 0.20 mM
  kcat: 0.15 s⁻¹
  kcat/Km: 750 M ^-1 s^-1
[3]
  Km: 12.3 mM
  kcat: 0.73 s⁻¹
  kcat/Km: 59.3 M ^-1 s^-1
[4]
  Km: 12.9 mM
  kcat: 4.07 s⁻¹
  kcat/Km: 316 M ^-1 s^-1
[5]
  Km: 69.6 mM
  kcat: 3.48 s⁻¹
  kcat/Km: 50.0 M ^-1 s^-1
[6]
  Km: 3.0 mM
  kcat: 0.56 s⁻¹
  kcat/Km: 187 M ^-1 s^-1
[7]
  Km: 95.5 mM
  kcat: 1.13 s⁻¹
  kcat/Km: 11.8 M ^-1 s^-1
